Experimental data taken from patent publication US20190338048A1.
Where two headings read alike, the source gives them in different places.

Experiments:
[1] = molecular target: CAT-2200 lambda light chain K129T_V133D; test: LCCA, SPR
[2] = molecular target: Pertuzumab kappa light chain S131K_V133G_S176R; test: LCCA, SPR
[3] = molecular target: Pertuzumab kappa light chain S131R_V133G_S176R; test: LCCA, SPR
[4] = molecular target: Pertuzumab kappa light chain S131K_V133G_S176R; test: LCCA, SPR; remark: listed apart in the source
[5] = molecular target: Pertuzumab kappa light chain S131R_V133G_S176R; test: LCCA, SPR; remark: listed apart in the source
[6] = molecular target: CAT-2200 lambda light chain K129T_V133D; test: LCCA, SPR; remark: listed apart in the source
[7] = molecular target: CAT-2200 lambda light chain K129T_T131D_V133D; test: LCCA, SPR tag read-out
[8] = molecular target: CAT-2200 lambda light chain K129T_V133D_Y178T; test: LCCA, SPR tag read-out
[9] = molecular target: CAT-2200 lambda light chain V133D_Y178T; test: LCCA, SPR tag read-out
[10] = molecular target: Pertuzumab kappa light chain S131K_V133G_S176R; test: LCCA, SPR tag read-out
[11] = molecular target: Pertuzumab kappa light chain S131R_V133G_L135W_S176R; test: LCCA, SPR tag read-out
[12] = molecular target: Pertuzumab kappa light chain S131R_V133G_S176R; test: LCCA, SPR tag read-out
[13] = molecular target: Pertuzumab kappa light chain S131K_V133G_S176R; test: LCCA, SPR tag read-out; remark: listed apart in the source
[14] = molecular target: Pertuzumab kappa light chain S131R_V133G_L135W_S176R; test: LCCA, SPR tag read-out; remark: listed apart in the source
[15] = molecular target: Pertuzumab kappa light chain S131R_V133G_L135W_S176R; test: LCCA, SPR tag read-out; remark: listed apart in the source
[16] = molecular target: CAT-2200 lambda light chain S122D_K129T_V133D_Y178T; test: LCCA, SPR tag read-out
[17] = molecular target: CAT-2200 lambda light chain S122D_K129T_V133D; test: LCCA, SPR tag read-out
[18] = molecular target: CAT-2200 lambda light chain S122D_V133D_Y178T; test: LCCA, SPR tag read-out
[19] = molecular target: Pertuzumab kappa light chain S121K_S131R_V133G_S176R; test: LCCA, SPR tag read-out
[20] = molecular target: Pertuzumab kappa light chain S121K_S131R_V133G_S176R; test: LCCA, SPR tag read-out; remark: listed apart in the source
[21] = molecular target: Pertuzumab kappa light chain S121K_S131R_V133G_S176R; test: LCCA, SPR tag read-out; remark: listed apart in the source
[22] = molecular target: Pertuzumab kappa light chain V133G_L135A_S176D_T180E; test: LCCA, SPR tag read-out
[23] = molecular target: CAT-2200 lambda light chain S122D_Y178K; test: LCCA, SPR tag read-out
[24] = molecular target: Pertuzumab kappa light chain S121K_V133G_S176D_T180E; test: LCCA, SPR tag read-out
[25] = molecular target: Pertuzumab kappa light chain S121K_V133G_S176D_T180E; test: LCCA, SPR tag read-out; remark: listed apart in the source
[26] = molecular target: Pertuzumab kappa light chain S121K_V133G_S176D_T180E; test: LCCA, SPR tag read-out; remark: listed apart in the source
[27] = molecular target: Pertuzumab kappa light chain Q124R_L135W_Q160K_T178R; test: LCCA
[28] = molecular target: Pertuzumab kappa light chain Q124R_L135W_Q160K_T178R; test: LCCA, SPR tag read-out
[29] = molecular target: Pertuzumab kappa light chain Q124R_L135W_T178R; test: LCCA, SPR tag read-out
[30] = molecular target: Pertuzumab kappa light chain Q124R_Q160R_T178R; test: LCCA, SPR tag read-out
[31] = molecular target: Pertuzumab kappa light chain Q124R_T178R; test: LCCA, SPR tag read-out
[32] = molecular target: Pertuzumab kappa light chain Q124R_L135W_T178R; test: LCCA, SPR tag read-out; remark: listed apart in the source
[33] = molecular target: Pertuzumab kappa light chain Q124R_T178R; test: LCCA, SPR tag read-out; remark: listed apart in the source
[34] = molecular target: Pertuzumab kappa light chain Q124R_T178R; test: LCCA, SPR tag read-out; remark: listed apart in the source
[35] = molecular target: Pertuzumab kappa light chain Q124R_T178R; test: LCCA, SPR tag read-out; remark: listed apart in the source
[36] = molecular target: Pertuzumab kappa light chain Q124R_Q160R_T178R; test: LCCA, SPR tag read-out; remark: listed apart in the source
[37] = molecular target: Pertuzumab kappa light chain Q124R_T178R; test: LCCA, SPR tag read-out; remark: listed apart in the source
[38] = molecular target: Pertuzumab kappa light chain Q124R_L135W_T178R; test: LCCA, SPR tag read-out; remark: listed apart in the source
[39] = molecular target: CAT-2200 lambda light chain S122D_K129T_S180E; test: LCCA
[40] = molecular target: Pertuzumab kappa light chain S121K_Q124R_Q160K_T178R; test: LCCA
[41] = molecular target: Pertuzumab kappa light chain S121K_Q124R_T178R; test: LCCA
[42] = molecular target: CAT-2200 lambda light chain S122D_K129T_S180E; test: LCCA; remark: listed apart in the source
[43] = molecular target: CAT-2200 lambda light chain S122D_K129T_S176D_Y178T; test: LCCA, SPR tag read-out
[44] = molecular target: CAT-2200 lambda light chain S122D_K129T_S176E_Y178E; test: LCCA, SPR tag read-out
[45] = molecular target: Pertuzumab kappa light chain S121K_Q124R_T178R; test: LCCA, SPR tag read-out
[46] = molecular target: Pertuzumab kappa light chain S121K_Q124R_T178R; test: LCCA, SPR tag read-out; remark: listed apart in the source
[47] = molecular target: Pertuzumab kappa light chain S121K_Q124R_T178R; test: LCCA, SPR tag read-out; remark: listed apart in the source

“Pertuzumab Fab heavy chain L124E_K145T_Q179E” gave an H2L2:H2L1 normalized median ratio [1] of 8%, an H2L2:H2L1 normalized median scalar value ln(r1/f1) [2] of 2.38 and an H2L2:H2L1 normalized median scalar value ln(r1/f1) [3] of 3.12. It also gave an H2L2:H2L1 normalized median scalar value ln(r1/f1) [4] of 2.18, an H2L2:H2L1 normalized median scalar value ln(r1/f1) [5] of 2.72 and an H2L2:H2L1 normalized median ratio [6] of 4%. It also gave an H2L2:H2L1 normalized median ratio [7] of 4%, an H2L2:H2L1 normalized median ratio [8] of 16% and an H2L2:H2L1 normalized median ratio [9] of 16%. The H2L2:H2L1 median scalar value [10] was 3.26 ln(ratio), the H2L2:H2L1 median scalar value [11] was 1.71 ln(ratio) and the H2L2:H2L1 median scalar value [12] was 4.11 ln(ratio). The H2L2:H2L1 median scalar value [13] was 3.71 ln(ratio), the H2L2:H2L1 median scalar value [14] was 2.31 ln(ratio) and the H2L2:H2L1 median scalar value [15] was 1.7 ln(ratio).

Work on “Pertuzumab Fab heavy chain L124E_K145T_Q179E_K228D” yielded an H2L2:H2L1 normalized median ratio [16] of 8%, an H2L2:H2L1 normalized median ratio [17] of 5% and an H2L2:H2L1 normalized median ratio [18] of 14%. For the same substance, the H2L2:H2L1 median scalar value [19] was 1.9 ln(ratio), the H2L2:H2L1 normalized median ratio [19] was 86% and the H2L2:H2L1 median scalar value [20] was 3.08 ln(ratio). The H2L2:H2L1 normalized median ratio [20] was 95%, the H2L2:H2L1 median scalar value [21] was 2.42 ln(ratio) and the H2L2:H2L1 normalized median ratio [21] was 92%.

In the case of “Pertuzumab Fab heavy chain L124R_S186K_V190F”, the H2L2:H2L1 median scalar value [22] is reported as -0.44 ln(ratio).

With “Pertuzumab Fab heavy chain L124R_S186R_K228D” the H2L2:H2L1 normalized median ratio [23] was 34%, the H2L2:H2L1 median scalar value [24] was 1.83 ln(ratio) and the H2L2:H2L1 normalized median ratio [24] was 66%. The H2L2:H2L1 median scalar value [25] was -0.49 ln(ratio) and the H2L2:H2L1 median scalar value [26] was -0.52 ln(ratio).

With “Pertuzumab Fab heavy chain L143E_K145T_Q179E” the H2L2:H2L1 median scalar value [27] was 0.77 ln, the H2L2:H2L1 median scalar value [28] was 2.02 ln(ratio) and the H2L2:H2L1 median scalar value [29] was 2.64 ln(ratio). The H2L2:H2L1 median scalar value [30] was 2.79 ln(ratio), the H2L2:H2L1 median scalar value [31] was 3.52 ln(ratio) and the H2L2:H2L1 median scalar value [32] was 2.54 ln(ratio). The H2L2:H2L1 median scalar value [33] was 3.01 ln(ratio), the H2L2:H2L1 median scalar value [34] was 2.74 ln(ratio) and the H2L2:H2L1 median scalar value [35] was 3.1 ln(ratio). The H2L2:H2L1 median scalar value [36] was 2.58 ln(ratio), the H2L2:H2L1 median scalar value [37] was 3.63 ln(ratio) and the H2L2:H2L1 median scalar value [38] was 2.68 ln(ratio).

With “Pertuzumab Fab heavy chain L143E_K145T_Q179E_K228D” the H2L2:H2L1 normalized median ratio [39] was 33%, the H2L2:H2L1 median scalar value [40] was 1.15 ln and the H2L2:H2L1 normalized median ratio [40] was 75%. It also gave an H2L2:H2L1 median scalar value [41] of 0.72 ln, an H2L2:H2L1 normalized median ratio [41] of 67% and an H2L2:H2L1 normalized median ratio [42] of 25%. The H2L2:H2L1 normalized median ratio [43] was 8%, the H2L2:H2L1 normalized median ratio [44] was 5% and the H2L2:H2L1 normalized median ratio [17] was 34%. The H2L2:H2L1 median scalar value [45] was 3.5 ln(ratio), the H2L2:H2L1 normalized median ratio [45] was 95% and the H2L2:H2L1 median scalar value [46] was 2.56 ln(ratio). The H2L2:H2L1 normalized median ratio [46] was 92%, the H2L2:H2L1 median scalar value [47] was 1.1 ln(ratio) and the H2L2:H2L1 normalized median ratio [47] was 66%.
